# Patent publication CN115724950A (YIDAO BIOTECHNOLOGY SUZHOU CO LTD, dated 2023)
# T1: HPV6-GFP假病毒 (Human papillomavirus type 6, UniProt P69899 1-500)
# T1 sequence: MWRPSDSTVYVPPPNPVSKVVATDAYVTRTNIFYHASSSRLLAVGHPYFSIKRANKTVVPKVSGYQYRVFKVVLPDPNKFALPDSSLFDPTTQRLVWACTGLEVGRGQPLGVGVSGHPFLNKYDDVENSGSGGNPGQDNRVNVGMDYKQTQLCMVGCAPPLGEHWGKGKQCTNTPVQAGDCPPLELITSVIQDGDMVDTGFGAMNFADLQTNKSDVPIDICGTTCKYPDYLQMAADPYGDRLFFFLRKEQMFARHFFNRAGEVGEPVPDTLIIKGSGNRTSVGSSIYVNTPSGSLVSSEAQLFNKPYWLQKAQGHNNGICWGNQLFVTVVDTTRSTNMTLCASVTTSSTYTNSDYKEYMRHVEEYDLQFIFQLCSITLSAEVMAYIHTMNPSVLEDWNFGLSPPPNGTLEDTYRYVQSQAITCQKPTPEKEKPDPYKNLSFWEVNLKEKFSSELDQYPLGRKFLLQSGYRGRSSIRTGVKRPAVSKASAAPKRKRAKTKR
# T2: HPV 18 抗原 (Human papillomavirus type 18, UniProt P06794 62-568)
# T2 sequence: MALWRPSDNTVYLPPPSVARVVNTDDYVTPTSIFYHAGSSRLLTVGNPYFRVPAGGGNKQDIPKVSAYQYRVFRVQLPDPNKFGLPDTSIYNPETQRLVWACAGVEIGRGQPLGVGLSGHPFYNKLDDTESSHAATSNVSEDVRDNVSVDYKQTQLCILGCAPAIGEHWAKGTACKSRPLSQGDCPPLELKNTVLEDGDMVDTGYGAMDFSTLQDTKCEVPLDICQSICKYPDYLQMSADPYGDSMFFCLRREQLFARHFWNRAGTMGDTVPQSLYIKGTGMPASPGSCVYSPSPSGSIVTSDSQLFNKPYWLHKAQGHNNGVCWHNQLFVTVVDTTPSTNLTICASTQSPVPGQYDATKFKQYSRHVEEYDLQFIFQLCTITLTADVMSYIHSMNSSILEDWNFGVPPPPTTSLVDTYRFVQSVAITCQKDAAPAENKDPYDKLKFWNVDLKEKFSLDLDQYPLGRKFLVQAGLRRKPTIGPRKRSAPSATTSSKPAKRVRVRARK
# T3: HPV 45 抗原 (Human papillomavirus type 45, UniProt P36741 27-539)
# T3 sequence: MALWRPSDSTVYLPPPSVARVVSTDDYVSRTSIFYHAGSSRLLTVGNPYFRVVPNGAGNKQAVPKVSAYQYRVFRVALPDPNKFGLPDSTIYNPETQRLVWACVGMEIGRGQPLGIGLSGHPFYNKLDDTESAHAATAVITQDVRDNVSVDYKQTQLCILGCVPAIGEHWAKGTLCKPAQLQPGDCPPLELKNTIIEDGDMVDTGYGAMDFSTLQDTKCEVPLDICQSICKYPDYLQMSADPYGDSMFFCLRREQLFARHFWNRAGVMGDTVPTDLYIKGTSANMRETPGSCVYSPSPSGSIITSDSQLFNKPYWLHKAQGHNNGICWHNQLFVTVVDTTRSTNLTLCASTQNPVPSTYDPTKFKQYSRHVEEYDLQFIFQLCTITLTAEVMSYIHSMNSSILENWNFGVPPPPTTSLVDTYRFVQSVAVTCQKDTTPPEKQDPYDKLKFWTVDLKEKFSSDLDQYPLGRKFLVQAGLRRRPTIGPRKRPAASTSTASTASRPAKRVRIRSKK
# T4: HPV31 抗原 (Human papillomavirus type 31, UniProt P17388 1-504)
# T4 sequence: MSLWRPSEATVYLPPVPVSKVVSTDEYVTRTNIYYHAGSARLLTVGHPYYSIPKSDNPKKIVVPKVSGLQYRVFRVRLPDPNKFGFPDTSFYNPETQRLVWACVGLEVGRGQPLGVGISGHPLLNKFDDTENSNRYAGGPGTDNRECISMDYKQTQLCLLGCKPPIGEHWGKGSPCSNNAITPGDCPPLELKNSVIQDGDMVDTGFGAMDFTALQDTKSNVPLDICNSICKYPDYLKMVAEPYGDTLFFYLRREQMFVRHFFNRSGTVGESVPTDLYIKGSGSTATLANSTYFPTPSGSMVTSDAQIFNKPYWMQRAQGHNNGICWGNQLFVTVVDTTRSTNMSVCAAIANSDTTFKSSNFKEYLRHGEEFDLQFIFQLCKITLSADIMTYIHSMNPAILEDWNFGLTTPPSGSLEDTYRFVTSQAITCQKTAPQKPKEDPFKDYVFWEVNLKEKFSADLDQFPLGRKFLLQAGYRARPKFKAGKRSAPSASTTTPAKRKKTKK
# T5: HPV 16 抗原 (Human papillomavirus type 16, UniProt P03101 1-505)
# T5 sequence: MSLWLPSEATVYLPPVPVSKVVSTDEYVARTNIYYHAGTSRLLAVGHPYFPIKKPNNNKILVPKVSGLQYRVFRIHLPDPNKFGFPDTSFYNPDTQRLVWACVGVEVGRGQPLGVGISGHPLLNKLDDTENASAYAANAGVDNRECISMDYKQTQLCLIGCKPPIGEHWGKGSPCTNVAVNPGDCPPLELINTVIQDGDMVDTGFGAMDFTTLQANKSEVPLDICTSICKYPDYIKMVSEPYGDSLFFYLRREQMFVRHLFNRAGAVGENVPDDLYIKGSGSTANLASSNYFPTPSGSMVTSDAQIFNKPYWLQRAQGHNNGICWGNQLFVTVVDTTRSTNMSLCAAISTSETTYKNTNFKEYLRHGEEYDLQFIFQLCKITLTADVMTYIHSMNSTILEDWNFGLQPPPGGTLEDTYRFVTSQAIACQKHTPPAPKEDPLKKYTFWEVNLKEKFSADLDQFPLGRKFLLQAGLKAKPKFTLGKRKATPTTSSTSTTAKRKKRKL
# T6: HPV11 抗原 (Human papillomavirus type 11, UniProt P04012 1-501)
# T6 sequence: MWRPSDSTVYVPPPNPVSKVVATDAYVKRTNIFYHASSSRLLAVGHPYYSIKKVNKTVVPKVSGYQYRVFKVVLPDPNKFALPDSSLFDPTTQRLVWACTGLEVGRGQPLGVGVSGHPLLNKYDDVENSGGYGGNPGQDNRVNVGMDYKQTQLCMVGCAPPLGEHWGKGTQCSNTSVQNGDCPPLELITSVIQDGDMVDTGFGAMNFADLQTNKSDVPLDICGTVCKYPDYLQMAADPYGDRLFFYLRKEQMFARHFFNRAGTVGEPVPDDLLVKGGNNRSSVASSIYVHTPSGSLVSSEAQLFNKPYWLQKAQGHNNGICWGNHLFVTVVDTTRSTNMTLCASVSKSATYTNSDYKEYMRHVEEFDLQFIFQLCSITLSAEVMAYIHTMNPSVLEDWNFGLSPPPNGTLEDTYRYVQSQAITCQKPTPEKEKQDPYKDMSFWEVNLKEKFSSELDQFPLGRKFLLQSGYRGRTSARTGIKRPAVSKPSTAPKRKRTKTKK
# T7: HPV 33 抗原 (Human papillomavirus type 33, UniProt P06416 1-499)
# T7 sequence: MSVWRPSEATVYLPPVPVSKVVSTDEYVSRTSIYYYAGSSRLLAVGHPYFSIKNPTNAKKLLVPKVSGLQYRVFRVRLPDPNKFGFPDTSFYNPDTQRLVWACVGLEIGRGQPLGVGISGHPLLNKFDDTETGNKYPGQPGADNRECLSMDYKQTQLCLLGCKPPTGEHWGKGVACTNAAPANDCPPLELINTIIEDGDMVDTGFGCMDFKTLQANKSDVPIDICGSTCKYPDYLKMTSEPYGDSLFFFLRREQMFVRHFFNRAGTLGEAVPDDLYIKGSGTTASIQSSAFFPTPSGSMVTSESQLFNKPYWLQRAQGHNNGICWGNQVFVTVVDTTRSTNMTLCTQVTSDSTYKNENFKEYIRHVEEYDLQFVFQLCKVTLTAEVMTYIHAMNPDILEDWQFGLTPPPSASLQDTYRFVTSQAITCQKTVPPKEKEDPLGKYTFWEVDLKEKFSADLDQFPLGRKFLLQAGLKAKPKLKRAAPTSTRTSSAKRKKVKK
# T8: HPV 58 抗原 (Human papillomavirus type 58, UniProt P26535 27-524)
# T8 sequence: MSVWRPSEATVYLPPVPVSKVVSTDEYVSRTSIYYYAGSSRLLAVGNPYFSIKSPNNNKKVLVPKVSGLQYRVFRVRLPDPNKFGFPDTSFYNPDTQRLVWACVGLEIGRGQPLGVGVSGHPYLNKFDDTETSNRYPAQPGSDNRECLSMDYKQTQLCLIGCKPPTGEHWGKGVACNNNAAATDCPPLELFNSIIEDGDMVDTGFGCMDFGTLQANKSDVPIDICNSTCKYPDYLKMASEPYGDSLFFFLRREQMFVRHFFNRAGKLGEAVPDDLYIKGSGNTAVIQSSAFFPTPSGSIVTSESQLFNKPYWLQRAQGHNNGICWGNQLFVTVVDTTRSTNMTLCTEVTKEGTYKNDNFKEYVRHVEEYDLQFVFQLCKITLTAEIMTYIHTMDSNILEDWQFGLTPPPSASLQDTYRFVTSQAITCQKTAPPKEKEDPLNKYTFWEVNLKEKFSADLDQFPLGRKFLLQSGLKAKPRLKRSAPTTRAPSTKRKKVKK
# B1: 6H1 鼠源单克隆抗体 (杂交瘤 CGMCC No.45134) (antibody, V domains shown)
# VH: EVQLQQSGPEVVKTGASVKISCKASGYSFTGYYMHWVKQSHGKSLEWIGYISCYNGATSYNQKFKGKATFTLDTSSSTAYMQFNSLTSEDSAVYYCAREDEYDGAYYLDYWGQGTTLTVSS
# VL: DIVMTQSQKFMSTSVGDRVSVTCKASQNVGTNVAWYQQKPGQSPKTLIYSASYRYSGVPDRFTGSGSGTDFTLTISNVQSEDLAEYFCQQYFRYPLTFGAGTKLELK
# notes: Tested as hybridoma supernatant (1.3, 1.4) and as protein G purified ascites antibody (1.6, 3.1); also called 第二单克隆抗体; 6H1 Lot#:2021081604
# B2: 1G11 鼠源单克隆抗体 (杂交瘤 CGMCC No.45133) (antibody, V domains shown)
# VH: EVKLVESGGGLVKPGGSLKLSCAASGVTFSSYAMSWVRQTPEKRLEWVASITRGGSTYYPDSVKGRFTISRDNARNILYLQMSSLRSEDTAMYYCAREGEDYYGSSYVDYWGQGTTLTVSS
# VL: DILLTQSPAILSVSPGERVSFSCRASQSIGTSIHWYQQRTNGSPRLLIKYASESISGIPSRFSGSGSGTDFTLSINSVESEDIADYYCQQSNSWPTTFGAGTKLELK
# notes: Tested as hybridoma supernatant (1.3, 1.4) and as protein G purified ascites antibody (1.6, 3.1); also called 第一单克隆抗体; 1G11 Lot#:2021081603
# Assays:
# HPV6-GFP假病毒 = target: T1, HPV6-GFP假病毒; assay: cell-based or functional assay
# HPV 18 抗原 = target: T2, HPV 18 抗原; assay: indirect ELISA, antigen coated at 1 μg/ml, supernatant diluted 20-fold
# HPV 45 抗原 = target: T3, HPV 45 抗原; assay: as above
# HPV31 抗原 = target: T4, HPV31 抗原; assay: as above
# HPV 16 抗原 = target: T5, HPV 16 抗原; assay: as above
# HPV11 抗原 = target: T6, HPV11 抗原; assay: as above
# HPV 33 抗原 = target: T7, HPV 33 抗原; assay: as above
# HPV 58 抗原 = target: T8, HPV 58 抗原; assay: as above
Binder,"假病毒中和实验 (HPV6-GFP假病毒, 293FT细胞, 荧光斑点数) (HPV6-GFP假病毒)","假病毒中和实验, 中和活性 (HPV6-GFP假病毒)",binding result (HPV 18 抗原),binding result (HPV 45 抗原),binding result (HPV31 抗原),binding result (HPV 16 抗原),binding result (HPV11 抗原),binding result (HPV 33 抗原),binding result (HPV 58 抗原)
B1,≥ 5120 fold dilution of supernatant,20500 fold dilution (titre),no binding,no binding,no binding,no binding,no binding,no binding,no binding
B2,≥ 5120 fold dilution of supernatant,20500 fold dilution (titre),no binding,no binding,no binding,no binding,no binding,no binding,no binding
